# Measured values published in the Human Domainome abundance scans (Beltran et al. 2025).
# ± gives the uncertainty stated by the source.
# Assay: abundance fitness (aPCA) (normalised: wild type 0, dead -1); higher = more abundant; growth selection in yeast, the domain comes from the species named
# Details: Homo sapiens
row,Substance,abundance fitness
1,"Scaffold attachment factor B2 V55Y, Q14151",-0.605 ± 0.18
2,"Scaffold attachment factor B2 K53P, Q14151",-0.204 ± 0.099
3,"Scaffold attachment factor B2 A40R, Q14151",-0.368 ± 0.13
4,"Scaffold attachment factor B2 D48G, Q14151",-0.284 ± 0.077
5,"Scaffold attachment factor B2 L60N, Q14151",-0.35 ± 0.22
6,"Scaffold attachment factor B2 R29F, Q14151",-0.237 ± 0.15
7,"Scaffold attachment factor B2 D48P, Q14151",0.03 ± 0.089
8,"Scaffold attachment factor B2 D70W, Q14151",-0.576 ± 0.16
9,"Scaffold attachment factor B2 K62L, Q14151",-0.212 ± 0.11
10,"Scaffold attachment factor B2 R34P, Q14151",0.02 ± 0.13
11,"Scaffold attachment factor B2 V35R, Q14151",-0.438 ± 0.067
12,"Scaffold attachment factor B2 S31G, Q14151",-0.208 ± 0.076
13,"Scaffold attachment factor B2 D37P, Q14151",-0.463 ± 0.14
14,"Scaffold attachment factor B2 L56S, Q14151",-0.434 ± 0.1
15,"Scaffold attachment factor B2 R28K, Q14151",-0.033 ± 0.14
16,"Scaffold attachment factor B2 T27M, Q14151",-0.053 ± 0.15
17,"Scaffold attachment factor B2 E58H, Q14151",-0.338 ± 0.15
18,"Scaffold attachment factor B2 R29I, Q14151",-0.211 ± 0.15
19,"Scaffold attachment factor B2 N52D, Q14151",0.11 ± 0.13
20,"Scaffold attachment factor B2 S31H, Q14151",-0.194 ± 0.09
21,"Scaffold attachment factor B2 T49F, Q14151",-0.452 ± 0.1
22,"Scaffold attachment factor B2 L38Y, Q14151",-0.612 ± 0.15

row,Substance,abundance fitness
1,"Scaffold attachment factor B2 Q69M, Q14151",-0.27 ± 0.19
2,"Scaffold attachment factor B2 D48R, Q14151",-0.625 ± 0.082
3,"Scaffold attachment factor B2 L47K, Q14151",-0.246 ± 0.11
4,"Scaffold attachment factor B2 R59C, Q14151",-0.583 ± 0.19
5,"Scaffold attachment factor B2 D37F, Q14151",-0.737 ± 0.12
6,"Scaffold attachment factor B2 V55G, Q14151",-0.438 ± 0.076
7,"Scaffold attachment factor B2 S31L, Q14151",-0.312 ± 0.1
8,"Scaffold attachment factor B2 K44C, Q14151",-0.48 ± 0.12
9,"Scaffold attachment factor B2 V55P, Q14151",-0.643 ± 0.13
10,"Scaffold attachment factor B2 A63K, Q14151",-0.695 ± 0.15
11,"Scaffold attachment factor B2 E66W, Q14151",-0.365 ± 0.12
12,"Scaffold attachment factor B2 E67M, Q14151",-0.525 ± 0.11
13,"Scaffold attachment factor B2 E67P, Q14151",-0.377 ± 0.12
14,"Scaffold attachment factor B2 G68A, Q14151",0.004 ± 0.094
15,"Tyrosine-protein kinase Lck E92N, P06239",-0.047 ± 0.14
16,"Scaffold attachment factor B2 R45S, Q14151",-0.509 ± 0.092
17,"Scaffold attachment factor B2 S54E, Q14151",-0.038 ± 0.11
18,"Scaffold attachment factor B2 V64L, Q14151",0.006 ± 0.098
19,"Scaffold attachment factor B2 Q69V, Q14151",-0.175 ± 0.11
20,"Scaffold attachment factor B2 K61N, Q14151",-0.002 ± 0.095
21,"Scaffold attachment factor B2 V35T, Q14151",-0.075 ± 0.084
22,"Scaffold attachment factor B2 M57S, Q14151",-0.49 ± 0.088

row,Substance,abundance fitness
1,"Scaffold attachment factor B2 T49H, Q14151",-0.647 ± 0.18
2,"Scaffold attachment factor B2 K43V, Q14151",-0.149 ± 0.1
3,"Scaffold attachment factor B2 E32W, Q14151",-0.621 ± 0.09
4,"Scaffold attachment factor B2 V55L, Q14151",-0.167 ± 0.14
5,"Tyrosine-protein kinase Lck S71D, P06239",-0.095 ± 0.14
6,"Scaffold attachment factor B2 V64T, Q14151",-0.123 ± 0.11
7,"Scaffold attachment factor B2 N46E, Q14151",-0.131 ± 0.092
8,"Scaffold attachment factor B2 G50V, Q14151",-0.015 ± 0.08
9,"Scaffold attachment factor B2 Q69N, Q14151",-0.717 ± 0.32
10,"Scaffold attachment factor B2 L30K, Q14151",-0.461 ± 0.12
11,"Scaffold attachment factor B2 E58T, Q14151",-0.203 ± 0.091
12,"Scaffold attachment factor B2 L42A, Q14151",-0.325 ± 0.085
13,"Scaffold attachment factor B2 L42R, Q14151",-0.668 ± 0.077
14,"Tyrosine-protein kinase Lck I67H, P06239",-0.353 ± 0.13
15,"Scaffold attachment factor B2 R45C, Q14151",-0.686 ± 0.14
16,"Scaffold attachment factor B2 E66P, Q14151",-0.485 ± 0.16
17,"Scaffold attachment factor B2 G51L, Q14151",-0.908 ± 0.087
18,"Scaffold attachment factor B2 R29P, Q14151",-0.117 ± 0.13
19,"Scaffold attachment factor B2 D37W, Q14151",-0.495 ± 0.086
20,"Scaffold attachment factor B2 A40P, Q14151",-0.433 ± 0.22
21,"Scaffold attachment factor B2 T49K, Q14151",-0.788 ± 0.16
22,"Scaffold attachment factor B2 A40S, Q14151",-0.168 ± 0.12

row,Substance,abundance fitness
1,"Scaffold attachment factor B2 K61Y, Q14151",-0.792 ± 0.32
2,"Scaffold attachment factor B2 E32M, Q14151",-0.554 ± 0.093
3,"Scaffold attachment factor B2 G51W, Q14151",-1.41 ± 0.1
4,"Tyrosine-protein kinase Lck F113S, P06239",0.094 ± 0.071
5,"Scaffold attachment factor B2 E67C, Q14151",-0.433 ± 0.12
6,"Scaffold attachment factor B2 S54R, Q14151",0.071 ± 0.074
7,"Scaffold attachment factor B2 L33D, Q14151",-0.307 ± 0.12
8,"Tyrosine-protein kinase Lck Q87R, P06239",-0.01 ± 0.077
9,"Scaffold attachment factor B2 V55C, Q14151",-0.294 ± 0.12
10,"Scaffold attachment factor B2 G50F, Q14151",-0.51 ± 0.17
11,"Scaffold attachment factor B2 G51V, Q14151",-0.729 ± 0.084
12,"Scaffold attachment factor B2 E66N, Q14151",-0.322 ± 0.26
13,"Scaffold attachment factor B2 A63Q, Q14151",-0.292 ± 0.11
14,"Scaffold attachment factor B2 R28G, Q14151",0.05 ± 0.071
15,"Scaffold attachment factor B2 G50R, Q14151",0.05 ± 0.079
16,"Scaffold attachment factor B2 R28W, Q14151",-0.14 ± 0.086
17,"Scaffold attachment factor B2 L42F, Q14151",-0.994 ± 0.16
18,"Scaffold attachment factor B2 I36Q, Q14151",0.08 ± 0.12
19,"Scaffold attachment factor B2 V64D, Q14151",-0.232 ± 0.18
20,"Scaffold attachment factor B2 L47V, Q14151",-0.622 ± 0.083
21,"Scaffold attachment factor B2 E67T, Q14151",-0.381 ± 0.1
22,"Scaffold attachment factor B2 K65C, Q14151",-0.145 ± 0.12

row,Substance,abundance fitness
1,"Scaffold attachment factor B2 E32A, Q14151",-0.445 ± 0.11
2,"Scaffold attachment factor B2 G50D, Q14151",-0.171 ± 0.12
3,"Scaffold attachment factor B2 R59D, Q14151",-0.54 ± 0.24
4,"Scaffold attachment factor B2 V55I, Q14151",-0.668 ± 0.27
5,"Scaffold attachment factor B2 T49C, Q14151",-0.266 ± 0.12
6,"Scaffold attachment factor B2 G50S, Q14151",-0.077 ± 0.11
7,"Scaffold attachment factor B2 K43L, Q14151",-0.191 ± 0.089
8,"Scaffold attachment factor B2 E41L, Q14151",-0.876 ± 0.35
9,"Scaffold attachment factor B2 K65V, Q14151",-0.111 ± 0.086
10,"Scaffold attachment factor B2 K62R, Q14151",-0.075 ± 0.078
11,"Scaffold attachment factor B2 L38H, Q14151",-0.578 ± 0.13
12,"Scaffold attachment factor B2 L42S, Q14151",-0.697 ± 0.089
13,"Scaffold attachment factor B2 K61V, Q14151",-0.094 ± 0.095
14,"Scaffold attachment factor B2 D37T, Q14151",-0.597 ± 0.089
15,"Scaffold attachment factor B2 N52H, Q14151",-0.719 ± 0.14
16,"Scaffold attachment factor B2 L42P, Q14151",-0.358 ± 0.12
17,"Scaffold attachment factor B2 R29M, Q14151",-0.288 ± 0.13
18,"Scaffold attachment factor B2 K44E, Q14151",-0.219 ± 0.091
19,"Scaffold attachment factor B2 G51F, Q14151",-0.882 ± 0.19
20,"Scaffold attachment factor B2 L60C, Q14151",-0.691 ± 0.14
21,"Scaffold attachment factor B2 K61C, Q14151",-0.303 ± 0.15
22,"Scaffold attachment factor B2 E67H, Q14151",-0.218 ± 0.4
